± gives the uncertainty stated by the source.
Test: self-splicing fitness, log relative to wild type (ln ratio); higher = more splicing; Tetrahymena group I intron in knt gene, E. coli kanamycin selection, DiMSum; sequences stand for … in CUCUCU…GGAGGGAAAAGUUAUCAGGCAUGCACCUGGUAGCUAGUCUUUAAACCAAUAGAUUGCAUCGGUUUAAAAGGCAAGACCGUCAAAUUGCGGGAAAGGGGUCAACAGCCGUUCAGUACCAAGUCUCAGGGGAAACUUUGAGAUGGCCUUGCAAAGGGUAUGGUAAUAAGCUGACGGACAUGGUCCUAACCACGCAGCCAAGUCCUAAGUCAACAGAUCUUCUGUUGAUAUGGAUGCAGUUCACAGACUAAAUGUCGGUCGGGGAAGAUGUAUUCUUCUCAUAAGAUAUAGUCGGACCUCUCCUUAAUGGGAGCUAGCGGAUGAAGUGAUGCAACACUGGAGCCGCUGGGAACUAAUUUGUAUGCGAAAGUAUAUUGAUUAGUUUUGGAGUACUCGUGGUCG
Procedure, shortened: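 DiMSum derived fitness as the error-weighted combination of fold changes across replicates, kanamycin versus no kanamycin, normalised to wild type. E. coli BL21(DE3) held the library, which randomised all eight P1ex-region intron nucleotides within the knt kanamycin-resistance gene on pET-22b(+). Six replicate transformations grew overnight at 37°C or 30°C on LB agar with or without 25 μg/mL kanamycin, also containing 100 μg/mL carbenicillin, 50 μM IPTG and 0.2% rhamnose, and pooled colonies were amplicon-sequenced on an Illumina HiSeq 2500.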

| Sequence | self-splicing fitness (ln) (30 °C) | self-splicing fitness (ln) (37 °C) |
| --- | --- | --- |
| AAAAAGCAAUAUUACGAACU | -0.488 ± 0.07 | -0.079 ± 0.087 |
| AAAAAGCAAUAUUACGAAUA | -1.42 ± 0.1 | -0.458 ± 0.095 |
| AAAAAGCAAUAUUACGACAG | -1.17 ± 0.066 | -0.774 ± 0.088 |
| AAAAAGCAAUAUUACGAGUC | -3.46 ± 0.22 | -1.28 ± 0.19 |
| AAAAAGCAAUAUUACGAUGC | -1.66 ± 0.091 | -0.868 ± 0.11 |
| AAAAAGCAAUAUUACGCACG | -1.4 ± 0.094 | -0.508 ± 0.14 |
| AAAAAGCAAUAUUACGCCAC |  | -2.91 ± 0.47 |
| AAAAAGCAAUAUUACGCCCA | -0.382 ± 0.12 | -0.253 ± 0.16 |
| AAAAAGCAAUAUUACGCUGG | -1.73 ± 0.11 | -0.618 ± 0.13 |
| AAAAAGCAAUAUUACGGCGU | -0.321 ± 0.078 | 0.208 ± 0.098 |
| AAAAAGCAAUAUUACGGGGG | -3.27 ± 0.17 | -2.76 ± 0.18 |
| AAAAAGCAAUAUUACGGUAG | -3.38 ± 0.21 | -1.45 ± 0.15 |
| AAAAAGCAAUAUUACGGUUC | -2.7 ± 0.18 | -1.81 ± 0.21 |
| AAAAAGCAAUAUUACGUAAU | -1.4 ± 0.063 | -0.916 ± 0.085 |
| AAAAAGCAAUAUUACGUACG | -1.1 ± 0.055 | -0.101 ± 0.076 |
| AAAAAGCAAUAUUACGUAGU | -2.1 ± 0.076 | -1.69 ± 0.091 |
| AAAAAGCAAUAUUACGUAUC | -2.37 ± 0.089 | -1.5 ± 0.12 |
| AAAAAGCAAUAUUACGUCCU | 0.148 ± 0.065 | 0.294 ± 0.079 |
| AAAAAGCAAUAUUACGUGAU | -2.07 ± 0.072 | -0.588 ± 0.09 |
| AAAAAGCAAUAUUACGUGUA | -1.78 ± 0.089 | -1.33 ± 0.085 |
| AAAAAGCAAUAUUACGUGUG | -1.57 ± 0.049 | -1.27 ± 0.069 |
| AAACAGCAAUAUUACGAACA | -1.78 ± 0.09 | -0.635 ± 0.084 |
| AAACAGCAAUAUUACGAAGA | -2.29 ± 0.12 | -1.55 ± 0.11 |
| AAACAGCAAUAUUACGACAA | -0.939 ± 0.095 | -0.417 ± 0.11 |
| AAACAGCAAUAUUACGACCC | -0.763 ± 0.11 | 0.302 ± 0.13 |
| AAACAGCAAUAUUACGACGU | -0.232 ± 0.045 | 0.39 ± 0.052 |

| Sequence | self-splicing fitness (ln) (30 °C) | self-splicing fitness (ln) (37 °C) |
| --- | --- | --- |
| AAACAGCAAUAUUACGAGGG | -3.69 ± 0.15 | -2.33 ± 0.15 |
| AAACAGCAAUAUUACGAGUC | -3.55 ± 0.14 | -2.38 ± 0.14 |
| AAACAGCAAUAUUACGAUCA | -0.774 ± 0.07 | -0.178 ± 0.065 |
| AAACAGCAAUAUUACGAUUA | -1.16 ± 0.092 | -0.343 ± 0.094 |
| AAACAGCAAUAUUACGAUUC | -2.04 ± 0.1 | 0.0665 ± 0.091 |
| AAACAGCAAUAUUACGCCCC | -1.63 ± 0.15 | -0.801 ± 0.19 |
| AAACAGCAAUAUUACGCCCG | -1.35 ± 0.27 | -0.868 ± 0.32 |
| AAACAGCAAUAUUACGCUAC | -3.84 ± 0.2 | -3.56 ± 0.24 |
| AAACAGCAAUAUUACGCUAU | -1.87 ± 0.1 | -2.23 ± 0.16 |
| AAACAGCAAUAUUACGCUCA | -0.43 ± 0.081 | 0.168 ± 0.1 |
| AAACAGCAAUAUUACGCUGU | -3.85 ± 0.14 | -1.89 ± 0.096 |
| AAACAGCAAUAUUACGGAAC | -3.5 ± 0.16 | -4.05 ± 0.28 |
| AAACAGCAAUAUUACGGAGU | -3.77 ± 0.16 | -2.53 ± 0.11 |
| AAACAGCAAUAUUACGGCCC | -2.15 ± 0.2 | -0.625 ± 0.23 |
| AAACAGCAAUAUUACGGCGU | -0.571 ± 0.053 | -0.336 ± 0.063 |
| AAACAGCAAUAUUACGGGGC | -3.85 ± 0.16 | -3.51 ± 0.19 |
| AAACAGCAAUAUUACGGGGU | -3.07 ± 0.11 | -2.6 ± 0.14 |
| AAACAGCAAUAUUACGUAGU | -1.64 ± 0.054 | -1.62 ± 0.077 |
| AAACAGCAAUAUUACGUCGG | -2.8 ± 0.11 | -1.13 ± 0.11 |
| AAACAGCAAUAUUACGUCGU | -2.13 ± 0.071 | -0.661 ± 0.071 |
| AAACAGCAAUAUUACGUGGA | -3.1 ± 0.14 | -1.95 ± 0.1 |
| AAAGAGCAAUAUUACGAAUG | -2.69 ± 0.2 |  |
| AAAGAGCAAUAUUACGACAC | -2.67 ± 0.29 | -1.89 ± 0.41 |
| AAAGAGCAAUAUUACGAGAG | -3.36 ± 0.19 | -3.42 ± 0.21 |
| AAAGAGCAAUAUUACGAGCA | -2.83 ± 0.39 | -2.26 ± 0.42 |
| AAAGAGCAAUAUUACGAGGC | -3.57 ± 0.24 | -2.74 ± 0.28 |

| Sequence | self-splicing fitness (ln) (30 °C) | self-splicing fitness (ln) (37 °C) |
| --- | --- | --- |
| AAAGAGCAAUAUUACGAUGC | -2.54 ± 0.2 | -1.96 ± 0.27 |
| AAAGAGCAAUAUUACGCAAG | -3.4 ± 0.19 | -3.51 ± 0.36 |
| AAAGAGCAAUAUUACGCAGU | -3.46 ± 0.2 | -1.71 ± 0.17 |
| AAAGAGCAAUAUUACGCGAC | -2.55 ± 0.2 | -0.998 ± 0.14 |
| AAAGAGCAAUAUUACGCUCA |  | -0.771 ± 0.37 |
| AAAGAGCAAUAUUACGGAGG | -3.48 ± 0.22 | -2.3 ± 0.23 |
| AAAGAGCAAUAUUACGGAUC | -2.89 ± 0.2 | -2.56 ± 0.15 |
| AAAGAGCAAUAUUACGGCGA | -1.65 ± 0.22 | -1.26 ± 0.3 |
| AAAGAGCAAUAUUACGGGCA | -2.45 ± 0.2 | -1.42 ± 0.24 |
| AAAGAGCAAUAUUACGGUGU | -4.54 ± 0.28 | -2.87 ± 0.21 |
| AAAGAGCAAUAUUACGUACA | -3.37 ± 0.28 | -1.71 ± 0.23 |
| AAAGAGCAAUAUUACGUAUA | -3.45 ± 0.37 | -1.89 ± 0.32 |
| AAAGAGCAAUAUUACGUCAA | -3.31 ± 0.18 | -2.61 ± 0.19 |
| AAAGAGCAAUAUUACGUCAC | -2.56 ± 0.5 | -2.76 ± 0.31 |
| AAAGAGCAAUAUUACGUCGG | -3.89 ± 0.24 | -1.71 ± 0.2 |
| AAAGAGCAAUAUUACGUGCG | -2.69 ± 0.12 | -1.82 ± 0.13 |
| AAAGAGCAAUAUUACGUGGG | -3.99 ± 0.18 | -3.8 ± 0.2 |
| AAAGAGCAAUAUUACGUUCU | -2.77 ± 0.13 | -1.72 ± 0.13 |
| AAAGAGCAAUAUUACGUUGC | -3.79 ± 0.39 | -1.93 ± 0.23 |
| AAAGAGCAAUAUUACGUUUU | -2.46 ± 0.11 | -1.91 ± 0.12 |
| AAAUAGCAAUAUUACGAAGA | -2.26 ± 0.26 | -1.1 ± 0.17 |
| AAAUAGCAAUAUUACGACAU | -0.145 ± 0.012 | 0.051 ± 0.032 |
| AAAUAGCAAUAUUACGACUC | -0.664 ± 0.17 | -0.335 ± 0.21 |
| AAAUAGCAAUAUUACGACUG | -0.98 ± 0.12 | -0.722 ± 0.18 |
| AAAUAGCAAUAUUACGAGCU | -1.37 ± 0.12 | -0.386 ± 0.13 |

— the supplement of paper PMC7877785
